Results from patent US12263245B2, “Immunomodulating treatments of body cavities” (UROGEN PHARMA LTD., priority 2023, dated 2025).

How the values were obtained:
CD4+ICOShi T cells = conditions: patients treated systemically with two doses, cited from earlier work
[1] = set-up: species or system human; conditions: in vivo
[2] = Aggregation stability of AGEN1884 drug product; format: physicochemical
Excerpt: AGEN1884 is very stable to aggregation.

Row | Substance | Expression of CD4+ICOShi T cells (CD4+ICOShi T cells; blood samples) | Increase in levels of IFN-γ compared to untreated patients (CD4+ICOShi T cells) | Sustained concentration of zalifrelimab detected in urine overtime [1] | Increase in aggregate ([2]; all samples at all ambient temperatures analyzed (even elevated) through the nine-month time point) | Zalifrelimab aggregates after 24 hours ([2]; stored at about 2° C.-8° C. for at least 24 hours)
1 | ipilimumab: an anti-CTLA-4 antibody | increased expression | approximately five-fold |  |  | 
2 | zalifrelimab: recombinant, fully human immunoglobulin G1 monoclonal antibody that neutralizes the inhibitory effects of CTLA-4 |  |  | below the level of quantitation | no increase in aggregate was detected | substantially free from zalifrelimab aggregates
